Assay results published in patent US20210238310A1.

What was measured:
[1] = molecular target: FcγRIIIa, on Jurkat effector cells (UniProt P08637); assay: cell-based or functional assay
[2] = molecular target: human FcγRIIa-H variant (Histidine at amino acid 131), on Jurkat effector cells (human) (UniProt P12318); assay: cell-based or functional assay
Chain of human FcγRIIa-H variant (Histidine at amino acid 131), on Jurkat effector cells (human) (P12318 34-317, change not shown): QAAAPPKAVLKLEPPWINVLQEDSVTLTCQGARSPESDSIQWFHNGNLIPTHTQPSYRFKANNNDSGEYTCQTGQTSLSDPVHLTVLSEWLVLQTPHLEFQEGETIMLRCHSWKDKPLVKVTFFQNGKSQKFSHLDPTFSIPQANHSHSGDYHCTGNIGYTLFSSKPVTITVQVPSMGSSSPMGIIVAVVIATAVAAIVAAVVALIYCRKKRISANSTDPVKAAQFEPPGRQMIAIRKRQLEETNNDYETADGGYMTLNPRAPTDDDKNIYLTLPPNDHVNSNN

Chain of FcγRIIIa, on Jurkat effector cells (P08637 17-254 limits assumed): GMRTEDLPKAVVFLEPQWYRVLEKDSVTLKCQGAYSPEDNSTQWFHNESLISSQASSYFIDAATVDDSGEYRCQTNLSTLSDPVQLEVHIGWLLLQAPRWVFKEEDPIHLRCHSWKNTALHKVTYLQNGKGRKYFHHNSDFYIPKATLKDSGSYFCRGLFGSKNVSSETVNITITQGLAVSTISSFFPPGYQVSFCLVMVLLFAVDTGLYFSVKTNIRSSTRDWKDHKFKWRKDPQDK

Row | EC50 (nM), Mean; FcγRIIIa signaling in an ADCC reporter assay (luciferase, HEK-PD-L1 target cells) [1] | EC50 (nM), Mean; FcγRIIIa signaling in an ADCC reporter assay (luciferase, Raji target cells) [1] | EC50 (nM), Mean; FcγRIIa signaling in an ADCP reporter assay (luciferase, Raji target cells) [2] | Substance
1 | 0.049 nM | – | – | avelumab monoclonal antibody, fucosylated
2 | – | 0.08 nM | 7.1 nM | obinutuzumab monoclonal antibody, fucosylated
